Reference: patent US5814603A, “Compounds with PTH activity” (Affymax Technologies N.V., priority 1993, dated 1998)
Ends that are not written are not given here.

How the values were obtained:
full length PTH-R = target: T1, full length PTH-R (Didelphis virginiana, UniProt P25107); conditions: native opossom kidney cells; Juppner et al. (1991); cited from earlier work
T1 construct: host or cells: native opossum kidney cells

PTH receptor = target: T2, PTH receptor (Rattus norvegicus, UniProt P25961); experiment: PTH analog activity assay: intracellular cAMP concentration in UMR106 cells; format: cell-based; conditions: rat osteosarcoma cell line UMR106, cAMP by scintillation proximity assay, 1 mM IBMX, 5 minutes at room temperature
T2 construct: host or cells: UMR106 rat osteosarcoma cells
T2 sequence (P25961 27-591): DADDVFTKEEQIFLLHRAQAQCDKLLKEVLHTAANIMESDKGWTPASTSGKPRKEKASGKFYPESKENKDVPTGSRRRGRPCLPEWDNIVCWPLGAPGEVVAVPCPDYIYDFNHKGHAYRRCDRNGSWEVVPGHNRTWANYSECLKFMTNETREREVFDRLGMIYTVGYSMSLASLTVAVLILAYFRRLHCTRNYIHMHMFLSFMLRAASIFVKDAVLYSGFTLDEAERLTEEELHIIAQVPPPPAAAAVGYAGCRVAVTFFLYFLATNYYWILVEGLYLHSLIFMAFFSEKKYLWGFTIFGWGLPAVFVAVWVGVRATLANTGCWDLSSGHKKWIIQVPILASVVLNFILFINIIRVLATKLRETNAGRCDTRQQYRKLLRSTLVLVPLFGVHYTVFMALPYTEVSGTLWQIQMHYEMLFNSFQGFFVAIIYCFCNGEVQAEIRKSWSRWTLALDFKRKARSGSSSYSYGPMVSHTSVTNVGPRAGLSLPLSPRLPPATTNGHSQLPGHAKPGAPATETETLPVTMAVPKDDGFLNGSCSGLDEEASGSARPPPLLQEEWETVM
Experimental: PTH concentrations were determined by OD280 using an extinction coefficient of 6600 for the recombinant peptide and 5500 for the synthetic peptide. The rat osteosarcoma cell line UMR106 (ATCC CRL 1661) was used for in vitro testing of the peptide's ability to activate the PTH receptor. Activation of the PTH receptor leads to an intracellular rise in cAMP concentration.
The UMR106 cells were plated at 1.2×10^5 per well in a 48 well dish. The media (DMEM with fetal calf serum) was removed, and 1 mL of fresh media was applied. PTH (recombinant or synthetic) at various concentrations and 3-isobutyl-1-methyl xanthine (IBMX) at 1 mM final concentration were then added to each well of the plate, which was then incubated for 5 minutes at room temperature. The media was then removed and the cells quickly washed with PBS. The cells were then extracted three times with 1 mL of absolute ethanol. The three extractions were combined and the ethanol removed by evaporation in a "speed vac" centrifuge. The extract was then redissolved in 0.5 mL of buffer (0.05M NaAcetate, pH=5.8, and 0.01% azide). The cAMP concentration was determined by scintillation proximity assay using a kit available from Amersham.

[1] = Isoelectric focusing (IEF) of the purified peptide; format: physicochemical; conditions: HPLC-purified peptide after CNBr cleavage
Experimental: The precipitated PTH polymer was then dissolved in 70% formic acid, and a 500-fold (100 to 1000-fold excess can be used) molar excess of CNBr was added. […] After CNBr cleavage, the peptides were lyophilized and resuspended in distilled water. The peptide was purified resuspended in Buffer A (0.1% TFA) and further purified by HPLC using a VYDAC C-18 Hamilton semi-preparative column. Approximately 30 mg of peptide was injected onto the column. The peptide was then eluted with a gradient of 20-40% acetonitrile/0.1% TFA over 40 minutes. The major peak, eluting at approximately 15 minutes, was collected and lyophilized to dryness. Analysis of this peptide by SDS-PAGE and IEF indicated a single species of approximately 4000 daltons with an isoelectric point of approximately 8.7.

T1 sequence (P25107 27-585): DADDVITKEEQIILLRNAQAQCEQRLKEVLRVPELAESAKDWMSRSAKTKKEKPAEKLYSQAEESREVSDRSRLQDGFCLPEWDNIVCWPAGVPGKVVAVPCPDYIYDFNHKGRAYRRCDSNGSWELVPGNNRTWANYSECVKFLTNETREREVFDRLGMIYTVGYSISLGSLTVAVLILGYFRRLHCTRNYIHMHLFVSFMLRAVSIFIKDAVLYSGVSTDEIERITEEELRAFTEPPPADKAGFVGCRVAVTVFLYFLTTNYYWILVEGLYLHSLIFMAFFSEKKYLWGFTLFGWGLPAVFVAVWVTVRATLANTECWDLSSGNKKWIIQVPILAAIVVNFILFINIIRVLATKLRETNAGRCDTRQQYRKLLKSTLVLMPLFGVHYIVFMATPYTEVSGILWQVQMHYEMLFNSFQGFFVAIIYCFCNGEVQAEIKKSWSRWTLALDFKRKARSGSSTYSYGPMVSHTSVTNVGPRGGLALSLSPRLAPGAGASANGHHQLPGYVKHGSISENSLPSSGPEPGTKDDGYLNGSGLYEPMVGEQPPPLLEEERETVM

| activity relative to synthetic human PTH (more active) (PTH receptor) | Substance | Kd (full length PTH-R) [nM] | isoelectric point [1] |
| --- | --- | --- | --- |
|  | PTH (1-34): PTH ligand bound by the native full length PTH receptor, per Juppner et al. 1991 | ~0.5 |  |
| 2-to-10 fold | recombinant PTH analog: 35 amino acid Ho/Hol PTH analog (SEQ ID NO:4/5) from CNBr cleavage of 8-mer fusion protein expressed from pBAD/PTH/OC in E. coli (SVSEIQLLHNLGKHLNSLERVEWLRKKLQDVHNYX; X: randomised place (mixture); also: X35: homoserine or homoserine lactone (mixture)) |  | approximately 8.7 |
